How the values were obtained:
Assay in all cases: holdup assay
Parameters in all cases: key: below the threshold = too weak to quantify, mostly under pKd 3.1 to 4
Conditions in all cases: plain residues with an end cap or a label only (N-terminal biotin on a linker: ttds)
O00233 = molecular target: O00233
Q9UDY2 = molecular target: Q9UDY2
Q5TCQ9 = molecular target: Q5TCQ9
Q96HC4 = molecular target: Q96HC4
Q9NR12 = molecular target: Q9NR12
Q9C0E4 = molecular target: Q9C0E4
O00560 = molecular target: O00560
Q9H190 = molecular target: Q9H190
Q13009 = molecular target: Q13009
Q9P227 = molecular target: Q9P227
O15021 = molecular target: O15021
Q9Y3R0 = molecular target: Q9Y3R0
O75970 = molecular target: O75970
Q13368 = molecular target: Q13368
Q96SB3 = molecular target: Q96SB3
Q92614 = molecular target: Q92614
Q70Z35 = molecular target: Q70Z35
NHERF4_3, Q86UT5 = molecular target: NHERF4_3, Q86UT5
NHERF4_3, Q86UT5, sequence (Q86UT5 325-412): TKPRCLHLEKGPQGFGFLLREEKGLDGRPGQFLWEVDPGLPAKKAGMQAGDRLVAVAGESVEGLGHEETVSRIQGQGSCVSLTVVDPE

O43166 = molecular target: O43166
Q6ZWJ1 = molecular target: Q6ZWJ1
Q9NPB6 = molecular target: Q9NPB6
Q8IUC4 = molecular target: Q8IUC4
Q9ULJ8 = molecular target: Q9ULJ8
LNX1_4, Q8TBB1 = molecular target: LNX1_4, Q8TBB1
LNX1_4, Q8TBB1, sequence (Q8TBB1 631-726): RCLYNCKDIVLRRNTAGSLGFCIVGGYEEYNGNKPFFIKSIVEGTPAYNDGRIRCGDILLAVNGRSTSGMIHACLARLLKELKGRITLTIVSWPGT

LNX2_1, Q8N448 = molecular target: T1, LNX2_1, Q8N448
T1 sequence (Q8N448 228-328, limits assumed, looked up): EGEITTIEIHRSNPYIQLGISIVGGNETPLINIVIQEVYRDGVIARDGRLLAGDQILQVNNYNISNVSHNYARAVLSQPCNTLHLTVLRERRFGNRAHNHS

Q8TB45 = molecular target: Q8TB45
Q8TDM6 = molecular target: Q8TDM6

Row | Binder | pKd (O00233) | pKd (Q9UDY2) | pKd (Q5TCQ9) | pKd (Q96HC4) | pKd (Q9NR12) | pKd (Q9C0E4) | pKd (O00560) | pKd (Q9H190) | pKd (Q13009) | pKd (Q9P227) | pKd (O15021) | pKd (Q9Y3R0) | pKd (O75970) | pKd (Q13368) | pKd (Q96SB3) | pKd (Q92614) | pKd (Q70Z35) | pKd (NHERF4_3, Q86UT5) | pKd (O43166) | pKd (Q6ZWJ1) | other results
1 | QSARYRDTEL [TJP2, Q9UDY2] | below the threshold | below the threshold | below the threshold | below the threshold | below the threshold | below the threshold | below the threshold | below the threshold | below the threshold | below the threshold | below the threshold | below the threshold | below the threshold | below the threshold | below the threshold | below the threshold | below the threshold | below the threshold | below the threshold | below the threshold | pKd (Q9NPB6): below the threshold; pKd (Q8IUC4): below the threshold; pKd (Q9ULJ8): below the threshold
2 | SSRTRRETQL [HPV16-E6, P03126] |  |  |  |  |  |  |  |  |  |  |  |  |  |  |  |  |  | 4.13 |  |  | pKd (LNX1_4, Q8TBB1): below the threshold; pKd (LNX2_1, Q8N448): below the threshold
3 | RSLEEEESQL [GRASP, Q7Z6J2] | below the threshold | below the threshold | below the threshold | below the threshold | below the threshold | below the threshold | below the threshold | below the threshold | below the threshold | below the threshold | below the threshold | below the threshold | below the threshold | below the threshold | below the threshold | below the threshold | below the threshold | below the threshold | below the threshold | below the threshold | pKd (Q9NPB6): below the threshold; pKd (Q8IUC4): below the threshold; pKd (Q9ULJ8): below the threshold
4 | STLTIFETAL [ABCC4, O15439] | below the threshold | below the threshold | below the threshold | below the threshold | below the threshold | below the threshold | below the threshold | below the threshold | below the threshold | below the threshold | below the threshold | below the threshold | below the threshold | below the threshold | below the threshold | below the threshold | below the threshold |  | below the threshold | below the threshold | pKd (Q9NPB6): below the threshold; pKd (Q8IUC4): below the threshold; pKd (Q9ULJ8): below the threshold
5 | PKTPPTDTSV [KIR3DL3, Q8N743] | below the threshold | below the threshold | below the threshold | below the threshold | below the threshold | below the threshold | below the threshold | below the threshold | below the threshold | below the threshold | below the threshold | below the threshold | below the threshold | below the threshold | below the threshold | below the threshold | below the threshold |  | below the threshold | below the threshold | pKd (Q9NPB6): below the threshold; pKd (Q8IUC4): below the threshold; pKd (Q9ULJ8): below the threshold
6 | SVWLRKETRV [CYSLTR2, Q9NS75] | below the threshold | below the threshold | below the threshold | below the threshold | below the threshold | below the threshold | below the threshold | below the threshold | below the threshold | below the threshold | below the threshold | below the threshold | below the threshold | below the threshold | below the threshold | below the threshold | below the threshold | below the threshold | below the threshold | below the threshold | pKd (Q8TB45): below the threshold; pKd (Q8TDM6): below the threshold; pKd (Q9NPB6): below the threshold; pKd (Q8IUC4): below the threshold; pKd (Q9ULJ8): below the threshold
7 | SRPQRTQTQV [HPV67-E6, A4U7F2] |  |  |  |  |  |  |  |  |  |  |  |  |  |  |  |  |  | below the threshold |  |  | 

From article PMC9482650, “Quantitative fragmentomics allow affinity mapping of interactomes” (Nature Communications, 2022)
